Reference: US20220153831A1 (HEDGEHOG, published 2022)
Changes are numbered by the printed parent chain.

T1: active human ETA (purified) (human, UniProt P25101 21-427)
T1 construct: also called human endothelin receptor type A
T1 sequence: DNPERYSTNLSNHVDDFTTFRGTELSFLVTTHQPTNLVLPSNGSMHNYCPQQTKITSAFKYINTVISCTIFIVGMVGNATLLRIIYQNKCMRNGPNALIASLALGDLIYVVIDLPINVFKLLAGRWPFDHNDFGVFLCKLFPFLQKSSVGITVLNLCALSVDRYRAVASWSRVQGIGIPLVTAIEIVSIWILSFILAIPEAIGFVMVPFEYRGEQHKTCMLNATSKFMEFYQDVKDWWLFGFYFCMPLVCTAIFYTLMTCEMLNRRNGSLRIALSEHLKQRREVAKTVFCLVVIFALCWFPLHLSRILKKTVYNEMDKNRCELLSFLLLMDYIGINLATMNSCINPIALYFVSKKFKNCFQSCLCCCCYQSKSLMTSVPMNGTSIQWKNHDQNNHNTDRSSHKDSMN

B1: AB9 (antibody, V domains shown)
VH: EVQLVESGAEVRKPGASVKVSCKASGYTFTSSDINWIRQATGQGLEWMGYMNPKNGNTDYAQKFQGRISMTRDSSISTAYMELSSLRSEDTAVYYCAKDRYGSGTYGEGMDVWGPGTLVT
VL: DIVMTQSPSAMSASVGDRVSITCRASQGINNYLAWFQQKPGKVPKRLMDVGSILQSGIPSRFRGRGSGTQFTLTISSLQAEDSGTYFCLQHNTYPLTFGPGTKVEIKR
notes: also called lead antibody
B2: EF12 (antibody, V domains shown)
VH: B1 VH with R100P, E108F
VL: B1 VL
notes: also called lead antibody
B3: FG12 (antibody, V domains shown)
VH: B1 VH with S103L, E108F
VL: B1 VL
notes: also called lead antibody
B4: GG12 (antibody, V domains shown)
VH: B1 VH with T105V, E108F
VL: B1 VL
notes: also called lead antibody

These binders were tested against T1, active human ETA (purified) (assay: ELISA on purified active ETA).
Experimental: The cross-binding activities of the developed antibodies to human ETA and mouse ETA were tested by ELISA.

Binding result, binds:
B1, B2, B3, B4
